Results: patent US20200024639A1

Target: HA-NanoLuc-VAMP2 (UniProt P63027)
Assay: cell-based or functional assay

UniProt P63027, sequence (P63027 1-116, tags or fused parts left off): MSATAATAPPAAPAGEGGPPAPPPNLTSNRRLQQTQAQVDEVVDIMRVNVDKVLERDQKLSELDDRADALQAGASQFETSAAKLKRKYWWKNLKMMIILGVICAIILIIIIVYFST

“botulinum neurotoxin type B (from UniProt P10844 2-1291) (enzyme)” was tested, and the cleavage of the reporter in SiMa cells, immunoblot with total VAMP2 antibody was 10 nM.
